Laboratory results published in article doi:10.1101/2024.03.19.585761.

Target: ErbB2 (natural, endogenous in BT474 and MCF7 cells) (human (endogenous in MCF7 and BT474)) (UniProt P04626)
Assay: PICO

Substance “ErbB3 (endogenous in BT474 and MCF7 cells) (from UniProt P21860 20-1342) (receptor)” has an ErbB2:ErbB3 complexes per cell (ppc), BT474 mock, antibody pair TTZ-2F12 of 662 ppc, an ErbB2:ErbB3 complexes per cell (ppc), BT474 mock, antibody pair TTZ-Ab90 of 831 ppc and an ErbB2:ErbB3 complexes per cell (ppc), MCF7 dactolisib, antibody pair TTZ-2F12 of 8670 ppc. It also gave an ErbB2:ErbB3 complexes per cell (ppc), MCF7 mock, antibody pair TTZ-2F12 of 4370 ppc, an ErbB2:ErbB3 complexes per cell (ppc), MCF7 mock, antibody pair TTZ-Ab90 of 5200 ppc and an ErbB2:ErbB3 complexes per cell, BT474 dactolisib (molecules per cell) of less than 181. For the same substance, the percent of ErbB2 bound to ErbB3, BT474 mock was 0.09%.
